Measurements as given in the supplement of paper PMC7125110.
± gives the standard error. Variants at the floor of the assay were thinned out.

B1: glmS ribozyme (parent)
chain: AUAAAAGCGCCAGAACUACAGAAAUGUAGUUGACGAGGAGGAGGUUUAUCGAAUUUUCGGCGGAUGCCUCCAAA

Tests used:
Details in all cases: with glucosamine-6-phosphate
glucosamine-6-phosphate [1] = variants of: B1; assay: self-cleavage kobs at 640 uM GlcN6P; higher = faster cleavage; RNA array
Procedure, shortened: (§1)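 kobs was derived by fitting per-tile medians to one- or two-exponential decays after normalising signals to baseline and to non-cleaving reference variants. Those signals came from barcoded ribozyme variants transcribed in situ by E. coli RNA polymerase on sequenced MiSeq chips, followed through a hybridised Cy3 probe at 37 °C and imaged over ~14 h. Glucosamine-6-phosphate (40 μM to 10 mM) in HEPES/KCl/Mg(OAc)2 buffer was flowed in. Weighted Michaelis–Menten fits across concentrations then gave kcat and KM.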

glucosamine-6-phosphate [2] = variants of: B1; assay: self-cleavage kobs at 2500 uM GlcN6P; higher = faster cleavage; RNA array
Procedure, shortened: as §1

glucosamine-6-phosphate [3] = variants of: B1; assay: self-cleavage kobs at 10000 uM GlcN6P; higher = faster cleavage; RNA array
Procedure, shortened: as §1

Variant	self-cleavage kobs at 640 uM GlcN6P (glucosamine-6-phosphate [1])	self-cleavage kobs at 2500 uM GlcN6P (glucosamine-6-phosphate [2])	self-cleavage kobs at 10000 uM GlcN6P (glucosamine-6-phosphate [3])
C34A A53G U56C	< 1e-05 s⁻¹	–	–
A33C U54G C71U	7.35e-05 ± 2.2e-05 s⁻¹	0.000178 ± 4.9e-05 s⁻¹	–
U31G G51U	< 1e-05 s⁻¹	–	–
U31C G35C G38U	< 1e-05 s⁻¹	–	–
C16U A39G G66A	0.00662 ± 0.0015 s⁻¹	–	–
C16U C34A G37A C68G	0.000275 ± 0.00012 s⁻¹	–	–
U31G U49G C67A	4.09e-05 ± 1.4e-05 s⁻¹	–	–
U31A G37U U47A U54C U69G	5.3e-05 ± 2e-05 s⁻¹	–	–
G35A C50U C67G C70U	< 1e-05 s⁻¹	–	–
G32A C34U G60A	< 1e-05 s⁻¹	< 1e-05 s⁻¹	–
G29A G44U U54A U57A C61U C68A	< 1e-05 s⁻¹	< 1e-05 s⁻¹	–
C16A G41U	< 1e-05 s⁻¹	–	–
G32U C34A G44A C68A	< 1e-05 s⁻¹	< 1e-05 s⁻¹	–
C34U U47C	< 1e-05 s⁻¹	< 1e-05 s⁻¹	< 1e-05 s⁻¹
U31A A33G U49C C58G	< 1e-05 s⁻¹	–	–
U31C G44A U46G G59A C70U	< 1e-05 s⁻¹	< 1e-05 s⁻¹	–
A33U C50G G51A	< 1e-05 s⁻¹	–	–
G32C U45G G60A C68G	< 1e-05 s⁻¹	< 1e-05 s⁻¹	–

Variant	self-cleavage kobs at 640 uM GlcN6P (glucosamine-6-phosphate [1])	self-cleavage kobs at 2500 uM GlcN6P (glucosamine-6-phosphate [2])	self-cleavage kobs at 10000 uM GlcN6P (glucosamine-6-phosphate [3])
G29C G37A G38U A52G	< 1e-05 s⁻¹	–	–
U30A A48C C58A G60A	< 1e-05 s⁻¹	–	–
C16U C34U G66U C68G	0.000354 ± 0.0001 s⁻¹	–	–
U30A G51C	< 1e-05 s⁻¹	–	< 1e-05 s⁻¹
G32U C50U C61U	< 1e-05 s⁻¹	< 1e-05 s⁻¹	–
A33G G41C G63U	< 1e-05 s⁻¹	–	< 1e-05 s⁻¹
G29U G66C	4.59e-05 ± 1.9e-05 s⁻¹	9.16e-05 ± 2.9e-05 s⁻¹	–
C16U C58U C67U C70U	0.000267 ± 6.7e-05 s⁻¹	6.37e-05 ± 2.5e-05 s⁻¹	–
G32C G35A A36U U47G U56G	< 1e-05 s⁻¹	< 1e-05 s⁻¹	–
G32A A48C U55G G66A	< 1e-05 s⁻¹	–	–
C16U A42U C58A G59C G60C	< 1e-05 s⁻¹	–	–
G29C U56C	0.000147 ± 3.2e-05 s⁻¹	0.000116 ± 2.1e-05 s⁻¹	0.00068 ± 0.00019 s⁻¹
A28C A33U G59U C61U	< 1e-05 s⁻¹	–	–
U31G C58G A64U	< 1e-05 s⁻¹	–	–
C16U G35C G37A	< 1e-05 s⁻¹	–	–
G32C G44C A48C C67G	< 1e-05 s⁻¹	< 1e-05 s⁻¹	–
C16U A39U A48U	3.71e-05 ± 1.6e-05 s⁻¹	7.54e-05 ± 1.5e-05 s⁻¹	–
